Measurements: article PMC9952396
Several values for one entry are separate records, joined by “and”; a condition that tells them apart may be missing. Identical values can stand only once.

target: T1, Cys30 (UniProt position 49, FFSFFCPHCYQ); test: not given; conditions: not stated (literature values for wild-type EcDsbA); cited from earlier work

In the case of “Thiol:disulfide interchange protein DsbA (EcDsbA), wild type (Escherichia coli (K-12))”, the pKa is listed as 3.55 ± 0.02 and ~3.4.

target: T1, Cys30; test: UV-vis; conditions: room temperature, 200 mM KCl plus buffer salts, 10 mM dipotassium phosphate, 10 mM monopotassium phosphate, 10 mM sodium citrate, 10 mM Tris, 1 mM EDTA, Reduced DsbA (DTT-reduced, reagent removed), with oxidised DsbA (Cu(II)-phenanthroline-oxidised) as reference

Point of comparison: “EcDsbA E24A (Escherichia coli (K-12); E24A)”, pKa 3.7 ± 0.1. Against it:
- EcDsbA E24A/K58A (Escherichia coli (K-12); E24A;K58A) — lower, 3.5 ± 0.1
- Thiol:disulfide interchange protein DsbA (EcDsbA), wild type (Escherichia coli (K-12)) — lower, 3.3 ± 0.1
- EcDsbA E24A/E37A/K58A (Escherichia coli (K-12); E24A;E37A;K58A) — lower, 3.5 ± 0.1
- EcDsbA K58A (Escherichia coli (K-12); K58A) — lower, 3.4 ± 0.1
- EcDsbA E37A (Escherichia coli (K-12); E37A) — lower, 3.3 ± 0.1
